Assay results taken from patent US20190382493A1 (CYTOMX THERAPEUTICS, published 2019).
Numbering of substitutions follows the chain as printed.

T1: human B7-1-Fc (R&D Systems) (human, UniProt P33681 35-242)
T1 construct: not shown: Fc part of the bought fusion protein; not described
T1 sequence (looked up): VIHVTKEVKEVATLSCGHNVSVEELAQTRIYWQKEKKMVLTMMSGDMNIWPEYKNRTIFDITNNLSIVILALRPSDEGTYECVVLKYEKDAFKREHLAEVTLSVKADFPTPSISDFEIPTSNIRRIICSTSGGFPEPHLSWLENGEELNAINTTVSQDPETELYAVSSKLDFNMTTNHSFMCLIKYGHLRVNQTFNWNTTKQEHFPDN

B1: PDL1 A05 Fab-phage (Fab, V domains shown)
VH: EVQLLESGGGLVQPGGSLRLSCAASGFTFSSYAMSWVRQAPGKGLEWVSSIWKQGIVTVYDSVKGRFTISRDNSKNTLYLQMNSLRAEDTAVYYCAKSSAGFDYWGQGTLVTV
VL: DIQMTQSPSSLSASVGDRVTITCRASQSISSYLNWYQQKPGKAPKLLIYYASTLQSGVPSRFSGSGSGTDFTLTISSLQPEDFATYYCQQDNGYPSTFGQGTKVEIKR
B2: PDL1 G12 Fab-phage (Fab, V domains shown)
VH: EVQLLESGGGLVQPGGSLRLSCAASGFTFSSYAMSWVRQAPGKGLEWVSSIWYQGLVTVYDSVKGRFTISRDNSKNTLYLQMNSLRAEDTAVYYCAKSSAGFDYWGQGTLVTVSS
VL: B1 VL
B3: PDL1 C05 Fab-phage (Fab, V domains shown)
VH: B2 VH with Y53R, Q54N, L56I
VL: B1 VL
B4: PDL1 C10 Fab-phage (Fab, V domains shown)
VH: B2 VH with S50D, Y53K, L56M
VL: B1 VL
B5: PDL1 D01 Fab-phage (Fab, V domains shown)
VH: B2 VH with Y53K, L56I
VL: B1 VL
B6: PDL1 D08 Fab-phage (Fab, V domains shown)
VH: B2 VH with Y53R, V57A, V59A
VL: B1 VL
B7: PDL1 G09 Fab-phage (Fab, V domains shown)
VH: B2 VH with S50E, W52V, Y53A, Q54T, L56I, V57L, V59S
VL: B1 VL
B8: PDL1 G10 Fab-phage (Fab, V domains shown)
VH: B2 VH with W52G, Y53R, V57I
VL: B1 VL
B9: PDL1 H06 Fab-phage (Fab, V domains shown)
VH: B2 VH with Y53R, V57A, V59A
VL: B1 VL
B10: PDL1 E11 Fab-phage (Fab, V domains shown)
VH: EVQLLESGGGLVQPGGSLRLSCAASGFTFSSYAMSWVRQAPGKGLEWVSDIWKQGFATADSVKGRFTISRDNSKNTLYLQMNSLRAEDTAVYYCAKSSAGFDYWGQGTLVTVSS
VL: B1 VL

Each binder was assayed against T1, human B7-1-Fc (R&D Systems) (assay: Fab-phage ELISA, antigen adsorbed).
Source text: Forty seven (47) individual isolates were chosen from the final pool. […] Briefly, the antigens were adsorbed to the wells of a 96-well ELISA plate, each ligand on a separate plate. Phage were applied to correlative wells on each plate and allowed to bind. Bound phage were visualized with an anti-M13-HRP conjugate and developed with the chromogenic substrate TMB. Based on the results of the ELISA and DNA sequence, 6 unique clones with matured heavy variable CDR3 domains and 10 heavy variable CDR2 domains were chosen for further study. […] Table 4 lists the heavy variable domains encoded by the clones and SEQ ID NOs for the nucleic acid sequences and amino acid sequences of their respective heavy chains.
B1: no binding. B2: no binding. B3: no binding. B4: no binding. B5: no binding. B6: no binding. B7: no binding. B8: no binding. B9: no binding. B10: no binding.

The binders below were run against Fab of anti-PDL1 antibody C5H9v2 (assay: binding of Fab to peptide-displaying clones).
IFCHMGVVVPQCANY [masking moiety PL15]: binds. PCHPHPYDARPYCNV [masking moiety PL10]: binds. ACHPHPYDARPYCNV (differs from PL10 by one alanine) [masking moiety PL16]: binds. PCHPAPYDARPYCNV (differs from PL10 by one alanine) [masking moiety PL17]: binds. PCHPHAYDARPYCNV (differs from PL10 by one alanine) [masking moiety PL18]: binds. PCHPHPADARPYCNV (differs from PL10 by one alanine) [masking moiety PL19]: binds. PCHPHPYAARPYCNV (differs from PL10 by one alanine) [masking moiety PL20]: binds. PCHPHPYDAAPYCNV (differs from PL10 by one alanine) [masking moiety PL21]: binds. PCHPHPYDARPACNV (differs from PL10 by one alanine) [masking moiety PL22]: binds. PCHPHPYDARPYCAV (differs from PL10 by one alanine) [masking moiety PL23]: binds. PCHAHPYDARPYCNV (differs from PL10 by one alanine) [masking moiety PL24]: binds. PCHPHPYDARAYCNV (differs from PL10 by one alanine) [masking moiety PL25]: binds. YCEVSELFVLPWCMG [masking moiety PL01]: binds. SCLMHPHYAHDYCYV [masking moiety PL02]: binds. LCEVLMLLQHPWCMG [masking moiety PL03]: binds. IACRHFMEQLPFCHH [masking moiety PL04]: binds. FGPRCGEASTCVPYE [masking moiety PL05]: binds. ILYCDSWGAGCLTRP [masking moiety PL06]: binds. GIALCPSHFCQLPQT [masking moiety PL07]: binds. DGPRCFVSGECSPIG [masking moiety PL08]: binds. LCYKLDYDDRSYCHI [masking moiety PL09]: binds. PCYWHPFFAYRYCNT [masking moiety PL11]: binds. VCYYMDWLGRNWCSS [masking moiety PL12]: binds. LCDLFKLREFPYCMG [masking moiety PL13]: binds. YLPCHFVPIGACNNK [masking moiety PL14]: binds.

The binders below were run against T2, anti-PDL1 antibody C5H9v2 (assay: binding of antibody to peptide-displaying clones).
T2 construct: IgG; also called anti-PDL1 parental antibody C5H9v2
IFCHMGVVVPQCANY [masking moiety PL15]: binds. PCHPHPYDARPYCNV [masking moiety PL10]: binds. ACHPHPYDARPYCNV (differs from PL10 by one alanine) [masking moiety PL16]: binds. PCHPAPYDARPYCNV (differs from PL10 by one alanine) [masking moiety PL17]: binds. PCHPHAYDARPYCNV (differs from PL10 by one alanine) [masking moiety PL18]: binds. PCHPHPADARPYCNV (differs from PL10 by one alanine) [masking moiety PL19]: binds. PCHPHPYAARPYCNV (differs from PL10 by one alanine) [masking moiety PL20]: binds. PCHPHPYDAAPYCNV (differs from PL10 by one alanine) [masking moiety PL21]: binds. PCHPHPYDARPACNV (differs from PL10 by one alanine) [masking moiety PL22]: binds. PCHPHPYDARPYCAV (differs from PL10 by one alanine) [masking moiety PL23]: binds. PCHAHPYDARPYCNV (differs from PL10 by one alanine) [masking moiety PL24]: binds. PCHPHPYDARAYCNV (differs from PL10 by one alanine) [masking moiety PL25]: binds. YCEVSELFVLPWCMG [masking moiety PL01]: binds. SCLMHPHYAHDYCYV [masking moiety PL02]: binds. LCEVLMLLQHPWCMG [masking moiety PL03]: binds. IACRHFMEQLPFCHH [masking moiety PL04]: binds. FGPRCGEASTCVPYE [masking moiety PL05]: binds. ILYCDSWGAGCLTRP [masking moiety PL06]: binds. GIALCPSHFCQLPQT [masking moiety PL07]: binds. DGPRCFVSGECSPIG [masking moiety PL08]: binds. LCYKLDYDDRSYCHI [masking moiety PL09]: binds. PCYWHPFFAYRYCNT [masking moiety PL11]: binds. VCYYMDWLGRNWCSS [masking moiety PL12]: binds. LCDLFKLREFPYCMG [masking moiety PL13]: binds. YLPCHFVPIGACNNK [masking moiety PL14]: binds.
